{"source": "patent US20240350588A1", "about": "(SUNSHINE LAKE PHARMA, published 2024)", "binders": {"B1": {"name": "Fc-GDF15 fusion protein M5 (Fc fusion)", "chain": "APEAAGGPSVFLFPPKPKDTLMISRTPEVTCVVVDVSQEDPEVQFNWYVDGVEVHNAKTKPREEQFNSTYRVVSVLTVLHQDWLNGKEYKCKVSNKGLPSSIEKTISKAKGQPREPQVYTLPPSQEEMTKNQVSLTCLVKGFYPSDIAVEWESNGQPENNYKTTPPVLDSDGSFFLYSRLTVDKSRWQEGNVFSCSVMHEALHNHYTQDSLSLSLGGGGGSGGGGSAPAPAPAPAPAPAPAPAPAPGGGGSGGGGSDHCPLGPGRCCRLHTVRASLEDLGWADWVLSPREVQVTMCIGACPSQFRAANMHAQIKTSLHRLKPDTVPAPCCVPASYNPMVLIQKTDTGVSLQTYDDLLAKDCHCI"}, "B2": {"name": "Fc-GDF15 fusion protein M6 (Fc fusion)", "chain": "APEAAGGPSVFLFPPKPKDTLMISRTPEVTCVVVDVSQEDPEVQFNWYVDGVEVHNAKTKPREEQFNSTYRVVSVLTVLHQDWLNGKEYKCKVSNKGLPSSIEKTISKAKGQPREPQVYTLPPSQEEMTKNQVSLTCLVKGFYPSDIAVEWESNGQPENNYKTTPPVLDSDGSFFLYSRLTVDKSRWQEGNVFSCSVMHEALHNHYTQQSLSLSLGGGGGSGGGGSAPAPAPAPAPAPAPAPAPAPGGGGSGGGGSDHCPLGPGRCCRLHTVRASLEDLGWADWVLSPREVQVTMCIGACPSQFRAANMHAQIKTSLHRLKPDTVPAPCCVPASYNPMVLIQKTDTGVSLQTYDDLLAKDCHCI"}, "B3": {"name": "Fc-GDF15 fusion protein M7 (Fc fusion)", "chain": "APEAAGGPSVFLFPPKPKDTLMISRTPEVTCVVVDVSQEDPEVQFNWYVDGVEVHNAKTKPREEQFNSTYRVVSVLTVLHQDWLNGKEYKCKVSNKGLPSSIEKTISKAKGQPREPQVYTLPPSQEEMTKNQVSLTCLVKGFYPSDIAVEWESNGQPENNYKTTPPVLDSDGSFFLYSRLTVDKSRWQEGNVFSCSVMHEALHNHYTQASLSLSLGGGGGSGGGGSAPAPAPAPAPAPAPAPAPAPGGGGSGGGGSDHCPLGPGRCCRLHTVRASLEDLGWADWVLSPREVQVTMCIGACPSQFRAANMHAQIKTSLHRLKPDTVPAPCCVPASYNPMVLIQKTDTGVSLQTYDDLLAKDCHCI"}, "B4": {"name": "Fc-GDF15 fusion protein M8 (Fc fusion)", "chain": "APEAAGGPSVFLFPPKPKDTLMISRTPEVTCVVVDVSQEDPEVQFNWYVDGVEVHNAKTKPREEQFNSTYRVVSVLTVLHQDWLNGKEYKCKVSNKGLPSSIEKTISKAKGQPREPQVYTLPPSQKEMTKNQVSLTCLVKGFYPSDIAVEWESNGQPENNYKTTPPVLDSDGSFFLYSRLTVDKSRWQEGNVFSCSVMHEALHNHYTQKSLSLSLGGGGGSGGGGSAPAPAPAPAPAPAPAPAPAPGGGGSGGGGSDHCPLGPGRCCRLHTVRASLEDLGWADWVLSPREVQVTMCIGACPSQFRAANMHAQIKTSLHRLKPDTVPAPCCVPASYNPMVLIQKTDTGVSLQTYDDLLAKDCHCI"}}, "data": [{"molecular_target": "T1, human GFRAL (UniProtKB-Q6UXVO) (human, UniProt Q6UXV0 19-394)", "T1 sequence (looked up)": "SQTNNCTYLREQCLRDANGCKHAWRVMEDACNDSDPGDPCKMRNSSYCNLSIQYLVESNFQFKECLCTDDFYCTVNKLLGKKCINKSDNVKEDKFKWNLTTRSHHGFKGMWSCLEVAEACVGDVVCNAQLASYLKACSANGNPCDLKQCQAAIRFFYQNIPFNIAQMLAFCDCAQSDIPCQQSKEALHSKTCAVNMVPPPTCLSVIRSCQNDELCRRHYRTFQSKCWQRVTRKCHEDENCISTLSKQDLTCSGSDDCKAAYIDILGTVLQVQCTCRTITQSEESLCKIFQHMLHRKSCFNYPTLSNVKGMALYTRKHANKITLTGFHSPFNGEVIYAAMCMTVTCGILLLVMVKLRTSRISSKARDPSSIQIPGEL", "experiment": "cell-based or functional assay", "units": {"Relative activity ratio (native GDF15 EC50: Fc-GDF15 construct EC50), ERK1/2 phosphorylation HTRF in HEK293T cells expressing human GFRAL and RET": "ratio"}, "values": [{"binder": "B1", "Relative activity ratio (native GDF15 EC50: Fc-GDF15 construct EC50), ERK1/2 phosphorylation HTRF in HEK293T cells expressing human GFRAL and RET": 2.47}, {"binder": "B2", "Relative activity ratio (native GDF15 EC50: Fc-GDF15 construct EC50), ERK1/2 phosphorylation HTRF in HEK293T cells expressing human GFRAL and RET": 2.71}, {"binder": "B3", "Relative activity ratio (native GDF15 EC50: Fc-GDF15 construct EC50), ERK1/2 phosphorylation HTRF in HEK293T cells expressing human GFRAL and RET": 3.16}, {"binder": "B4", "Relative activity ratio (native GDF15 EC50: Fc-GDF15 construct EC50), ERK1/2 phosphorylation HTRF in HEK293T cells expressing human GFRAL and RET": 1.69}]}]}
